One block for each molecule: values may come before it.
Key:
[1] = cited from earlier work
[2] = In vitro release of rhodamine B from microneedle arrays in 1×PBS at 37° C.; assay type: physicochemical; conditions: within the first hour, rhodamine B encapsulated in PEGDA microneedles and backing layer
Experimental: Encapsulation of a Model Drug: Imaging and In Vitro Release Rhodamine B was dissolved in the prepolymer solution at a concentration of 0.09, 0.17 and 0.44 weight %, respectively. The drug-laden microneedle samples were imaged using a fluorescence stereomicroscope (Nikon, Japan). The amount of drug encapsulated in the microneedles was calculated from the percent weight of the drugs in the prepolymer solution and the weight of fabricated microneedles. Selective incorporation of rhodamine B in the backing layer or microneedle shafts was made possible by using the prepolymer solutions containing the model drug to fabricate the backing layer or microneedles respectively. In vitro release of rhodamine B was tested by suspending fabricated microneedle arrays in 15 ml of 1×PBS, at 37° C. and sampled at regular intervals. At each sampling point, the whole 15 ml of release medium was withdrawn and replaced with 15 ml of fresh 1×PBS. The samples were stored at 4° C. before analysis. The amount released was quantified by measuring rhodamine B fluorescence at excitation and emission wavelengths of 554 nm and 586 nm, respectively, with a Tecan 2000 microplate reader (Tecan, Austria). In Vitro Permeation Through Rat Skin

[3] = Collagen permeation through microneedle pretreated rat skin (confocal fluorescence); assay type: in vitro ADME
Experimental: Microneedles of the longest range of length were inserted into excised rat abdominal skin. Hair and fat were removed as mentioned previously. The skin was fully stretched on a thin layer of PDMS to mimic tissue-like mechanical support. A force of 10 N was applied using the digital force gauge (Dillon GL, USA) for 2 minutes. Bovine skin collagen type 1, FITC conjugate (MW=300 kDa) of concentrations 0.025, 0.050 and 0.075% w/v was obtained by diluting the stock collagen solution (0.1% w/v) withappropriate amount of 0.1 M Tris-HCl buffer (pH 7.8) containing 0.4 M NaCl, 10 mM CaCl2 and 0.25 M glucose. NaCl and CaCl2 aid in stabilizing the collagen molecules and glucose is added to prevent gelation of the collagen fibers. Each collagen concentration was applied to separate skin samples at the area of insertion. The time of contact between the collagen solution and the skin was kept constant at 4 hours at room temperature, after which excess collagen on the skin surface was removed using Kimwipe (Kimberly-Clark, Roswell, Ga.). The degree of permeation of collagen through the skin was quantified by using the A-1R confocal microscope (Nikon, Japan) to observe the fluorescence intensity of collagen type 1, FITC conjugate at excitation and emission wavelengths of 490 nm and 520 nm respectively. […]

[4] = Circular dichroism, secondary structure stability of BSA in microneedles; assay type: physicochemical; conditions: far UV CD 260-200 nm; microneedle release samples stored 3 days at 37° C.; degraded control: 75° C. or pH 2
Experimental: Circular dichroism (CD) spectroscopy was performed on the samples to evaluate the secondary structural characteristics of bovine serum albumin in the fabricated microneedles. The analysis was performed in a Jasco J-810 spectropolarimeter (Jasco, Tokyo, Japan) with a 1 mm light path quartz cell (Helima, Müllheim, Germany). Data was acquired at a bandwidth of 0.1 nm with a scan speed of 50 nm/min and a response time of 8 seconds. […] The microneedle release samples were first filtered using micro-centrifugal concentrators, (30 kDa cut-off) (Vivaspin 20, GE, UK) to separate the protein from polymer. Average value from triplicate measurements was used to plot the curve of molar ellipticity to wavelength. Molar ellipticity was calculated using the following equation: […]
The percentage of α-helix was calculated from the following equation
[formula] Tertiary Structure Stability

[5] = Fluorescence spectroscopy, tertiary structure stability of BSA in microneedles; assay type: physicochemical; conditions: excitation 280 nm
Experimental: In order to evaluate the tertiary structural changes in the protein conformation, fluorescence spectra was analyzed for protein samples. […] The emission spectra were studied in the range of 300-400 nm at a fixed excitation wavelength of 280 nm using a Hitachi F-7000 fluorescence spectrophotometer. The fluorescence intensities were plotted against wavelength as an average of triplicate measurements.

Molecule: O=C(O)CN(CC(=O)O)Cc1cc2c(cc1O)Oc1cc(O)c(CN(CC(=O)O)CC(=O)O)cc1C21OC(=O)c2ccccc21 [calcein]
log P [1]: −5.02

encapsulated drug released [2]: ~30%
Molecule: CCN(CC)c1ccc2c(-c3ccccc3C(=O)O)c3ccc(=[N+](CC)CC)cc-3oc2c1.[Cl-] [rhodamine B, Rhodamine B]
log P [1]: 2.43

Molecule: bovine collagen type 1, FITC conjugate: model macromolecule, MW=300 kDa, applied to microneedle pretreated skin
diffusion of collagen molecules after treatment of skin with microneedles [3]: greatly enhanced

Molecule: degraded BSA: BSA degraded by heating at 75° C. and under acidic conditions of pH 2
secondary structure / ellipticity by circular dichroism [4]: significantly lower ellipticity values | fluorescence ([5]; BSA denatured using heat or acid, emission 300-400 nm): did not show any fluorescence

Molecule: standard solution of BSA: standard BSA solution 0.026 mg/ml in purified water
emission maximum ([5]; standard BSA solution, scanned 300-400 nm): 338 nm

— patent US10272233B2, “Method to fabricate polymeric microneedles” (National University of Singapore, priority 2012, dated 2019)
